# Laboratory results from patent US20240132578A1.
# How the values were obtained:
# Test in all cases: cell-based or functional assay
# [1] = target: HIV-1 Env of isolate CMU02 (pseudovirus) (HIV-1)
# [2] = target: HIV-1 Env of isolate MGRM-C-027 (subtype C), on pseudovirus (HIV-1)
# [3] = target: HIV-1 Env of isolate 92RW008 (subtype A) (HIV-1)
# [4] = target: HIV-1 Env of isolate MGRM-D-001 (HIV-1)
# [5] = target: HIV-1 Env of isolate MGRM-G-024 (subtype G) (HIV-1)
# [6] = target: HIV-1 Env of isolate 92TH021 (pseudovirus) (HIV-1)
# [7] = target: HIV-1 Env of isolate MGRM-D-003 (HIV-1)
# [8] = target: HIV-1 Env of isolate MG RM-A-007 (pseudovirus) (HIV-1)
# [9] = target: HIV-1 envelope glycoprotein (Env) of isolate MG RM-AG-011 (HIV-1)
# [10] = target: HIV-1 envelope glycoprotein (Env) of isolate MG RM-AG-013 (HIV-1)
# [11] = target: HIV-1 Env of pseudovirus MGRM-F1-016 (HIV-1)
# [12] = target: HIV-1 envelope glycoprotein (Env) of isolate MG RM-AG-008 (HIV-1)
# [13] = target: HIV-1 Env of isolate MGRM-D-002 (pseudovirus) (HIV-1)
# [14] = target: HIV-1 Env of isolate MGRM-A-012 (subtype A) (HIV-1)
# [15] = target: HIV-1 JR-CSF Env T394A (HIV-1 (isolate JR-CSF)) (UniProt P20871)
# [16] = target: HIV-1 Env of pseudovirus isolate MGRM-C-022 (clade C) (HIV-1)
# [17] = target: HIV-1 Env of isolate MGRM-A-002 (pseudovirus) (HIV-1)
# [18] = target: HIV-1 Env of isolate 92UG114 (pseudovirus) (HIV-1)
# [19] = target: HIV-1 92UG024 envelope protein (Env) on pseudovirus (HIV-1)
# [20] = target: HIV-1 envelope glycoprotein (Env) of isolate 92UG037, subtype A (HIV-1)
# [21] = target: HIV-1 envelope glycoprotein (Env) of isolate 93TH305, on pseudovirus (HIV-1)
# [22] = target: HIV-1 envelope glycoprotein (Env) of isolate MG RM-A-003, subtype A (HIV-1)
# [23] = target: HIV-1 envelope glycoprotein (Env) of isolate MGRM-AE-001, subtype AE (HIV-1)
# [24] = target: HIV-1 Env of isolate MGRM-AG-013 (pseudovirus) (HIV-1)
# [25] = target: HIV-1 Env of isolate MGRM-AG-006 (pseudovirus) (HIV-1)
# [26] = target: HIV-1 envelope glycoprotein (Env) of isolate MGRM-Chronic-B-023, on pseudovirus (HIV-1)
# [27] = target: HIV-1 Env of isolate MGRM-AG-003 (pseudovirus) (HIV-1)
# [28] = target: HIV-1 CMU02 Env (pseudovirus) (HIV-1)
# [29] = target: HIV-1 Env of isolate MGRM-AG-002 (pseudovirus) (HIV-1)
# [30] = target: HIV-1 envelope glycoprotein (Env) of isolate MG RM-A-013, subtype A (HIV-1)
# [31] = target: HIV-1 Env of isolate MGRM-F1-020 (pseudovirus) (HIV-1)
Substance,"IC50 (µg/mL), single-round pseudovirus neutralization [1]","IC50, single-round pseudovirus neutralization [2]","IC50, pseudovirus neutralization [3]","IC50 (µg/mL), pseudovirus neutralization [4]","IC50 (µg/mL), pseudovirus neutralization [5]","IC50 (µg/mL), single-round pseudovirus neutralization [6]","IC50 (µg/mL), pseudovirus neutralization [7]","IC50 (µg/mL), single-round pseudovirus neutralization [8]",IC50 [9],IC50 [10],"IC50, pseudovirus neutralization [11]",IC50 [12],"IC50 (µg/mL), pseudovirus neutralization [13]","IC50, pseudovirus neutralization [14]","IC50, pseudovirus neutralization [16]","IC50 (µg/mL), pseudovirus neutralization [17]","IC50 (µg/mL), pseudovirus neutralization [18]",other results
4980_N08 (PGT-143) (antibody),> 50 µg/mL,0.598 µg/mL,0.385 µg/mL,> 50 µg/mL,0.048 µg/mL,0.003 µg/mL,> 50 µg/mL,> 50 µg/mL,,,,,,,,,,
VRC01 (antibody),0.515 µg/mL,0.125 µg/mL,0.037 µg/mL,> 50 µg/mL,0.025 µg/mL,0.616 µg/mL,2.06 µg/mL,12.6 µg/mL,0.084 µg/mL,0.197 µg/mL,0.517 µg/mL,0.124 µg/mL,,,,,,
4970_K22 (PGT-144) (antibody),> 50 µg/mL,> 50 µg/mL,> 50 µg/mL,> 50 µg/mL,7.92 µg/mL,0.052 µg/mL,> 50 µg/mL,> 50 µg/mL,,,,,,,,,,
PGT-143 (4980_N08) (antibody),,,,,,,,,0.156 µg/mL,> 50 µg/mL,> 50 µg/mL,34 µg/mL,,,,,,
5147_N06 (PGT-130) (antibody),,,,,,,,,,,,,0.869 µg/mL,> 50 µg/mL,0.127 µg/mL,0.01 µg/mL,> 50 µg/mL,"Fold IC50 increase relative to wild-type (pseudovirus neutralization) [15]: 1.2 fold; IC50 (ug/mL), pseudovirus neutralization [19]: > 10 µg/mL"
5123_A06 (PGT-125) (antibody),,,,,,,,,,,,,,,,,,"IC50, pseudovirus neutralization [20]: 0.005 µg/mL; IC50, pseudovirus neutralization [21]: 0.008 µg/mL; IC50, pseudovirus neutralization [22]: > 50 µg/mL; IC50, pseudovirus neutralization [23]: 2.95 µg/mL; IC50 (µg/mL), pseudovirus neutralization [24]: 0.004 µg/mL; IC50 (µg/mL), pseudovirus neutralization [25]: 0.008 µg/mL; IC50, pseudovirus neutralization [26]: > 50 µg/mL; IC50 (µg/mL), pseudovirus neutralization [27]: > 50 µg/mL; Fold IC50 increase relative to wild-type (pseudovirus neutralization) [15]: 0.6 fold; Neutralization by PGT-125, IC50 [28]: > 10 µg/mL; Neutralization by PGT-125, IC80 [28]: > 10 µg/mL; Neutralization by PGT-125, IC90 [28]: > 10 µg/mL; Neutralization by PGT-125, IC95 [28]: > 10 µg/mL; IC50 (µg/mL), pseudovirus neutralization [29]: > 50 µg/mL; IC50, pseudovirus neutralization [30]: 0.014 µg/mL; IC50 (ug/mL), pseudovirus neutralization [19]: > 10 µg/mL; IC50 (µg/mL), pseudovirus neutralization [31]: > 50 µg/mL"
PGT-144 (4970_K22) (antibody),,,,,,,,,44.6 µg/mL,> 40 µg/mL,> 50 µg/mL,> 50 µg/mL,,,,,,
5345_I01 (PGT-137) (antibody),,,,,,,,,,,,,> 50 µg/mL,> 50 µg/mL,> 50 µg/mL,> 50 µg/mL,> 50 µg/mL,
5114_A19 (PGT-128) (antibody),,,,,,,,,,,,,0.011 µg/mL,0.025 µg/mL,0.042 µg/mL,0.149 µg/mL,0.083 µg/mL,Fold IC50 increase relative to wild-type (pseudovirus neutralization) [15]: 3 fold
4993_K13 (PGT-141) (antibody),> 50 µg/mL,3.27 µg/mL,0.579 µg/mL,> 50 µg/mL,0.051 µg/mL,0.001 µg/mL,> 50 µg/mL,> 50 µg/mL,,,,,,,,,,
5329_C19 (PGT-136) (antibody),,,,,,,,,,,,,> 50 µg/mL,> 50 µg/mL,> 50 µg/mL,> 50 µg/mL,> 50 µg/mL,"IC50 (ug/mL), pseudovirus neutralization [19]: 0.0915 µg/mL"
4995_P16 (PGT-145) (antibody),1.43 µg/mL,0.095 µg/mL,0.4 µg/mL,0.56 µg/mL,0.06 µg/mL,0.013 µg/mL,0.006 µg/mL,> 50 µg/mL,,,,,,,,,,
PGT-141 (4964_G22; 4993_K13) (antibody),,,,,,,,,0.118 µg/mL,> 50 µg/mL,> 50 µg/mL,19.2 µg/mL,,,,,,
5136_H01 (PGT-131) (antibody),,,,,,,,,,,,,11.2 µg/mL,> 50 µg/mL,0.78 µg/mL,> 50 µg/mL,> 50 µg/mL,Fold IC50 increase relative to wild-type (pseudovirus neutralization) [15]: 0.9 fold
PGT-145 (4995_P16) (antibody),,,,,,,,,0.003 µg/mL,14.4 µg/mL,17.5 µg/mL,0.244 µg/mL,,,,,,
PGT-142 (4995_E20) (antibody),,,,,,,,,0.081 µg/mL,21.7 µg/mL,> 50 µg/mL,12.1 µg/mL,,,,,,
5343_B08 (PGT-135) (antibody),,,,,,,,,,,,,> 50 µg/mL,> 50 µg/mL,> 50 µg/mL,> 50 µg/mL,1.29 µg/mL,"Fold IC50 increase relative to wild-type (pseudovirus neutralization) [15]: > 75 fold; IC50 (ug/mL), pseudovirus neutralization [19]: 0.0139 µg/mL"
4995_E20 (PGT-142) (antibody),> 50 µg/mL,0.792 µg/mL,0.447 µg/mL,> 50 µg/mL,0.054 µg/mL,0.002 µg/mL,> 50 µg/mL,> 50 µg/mL,,,,,,,,,,
